The source of these data is patent US20240166765A1 (ICONIC THERAPEUTICS, published 2024).

In assay [1] the target is T1, rTF (rat TF) (rat, UniProt P42533 29-252).
T1 construct: Expressed on the surface of transfected HEK293 cells
As to the kind of experiment: live cell staining, flow cytometry.

The target of another assay is T2, h1-107_r (human/rat chimera).
T2 construct: on HEK293 cells
T2 chain: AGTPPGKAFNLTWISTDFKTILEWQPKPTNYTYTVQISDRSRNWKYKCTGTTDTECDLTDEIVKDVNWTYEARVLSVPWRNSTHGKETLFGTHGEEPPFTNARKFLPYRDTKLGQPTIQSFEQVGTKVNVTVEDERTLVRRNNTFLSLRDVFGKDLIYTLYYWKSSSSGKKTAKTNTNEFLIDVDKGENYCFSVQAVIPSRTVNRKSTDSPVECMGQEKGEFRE
Briefly: live cell staining, flow cytometry. On the technique in general: A flow cytometer gives signals particle by particle.

Another assay deals with T3, h1-77_r (human/rat chimera).
T3 construct: Human TF with ECD residues 1-77 replaced by the rat segment; on HEK293 cells
Briefly: live cell staining, flow cytometry.

The next assay concerns the target T4, h78-107_r.v2 (human/rat chimera).
T4 construct: on HEK293 cells
As to the kind of experiment: live cell staining, flow cytometry.

The next assay deals with T5, h159-219_r (human/rat chimera).
T5 construct: on HEK293 cells
As to the kind of experiment: live cell staining, flow cytometry.

The next assay concerns the target T6, hTF (human, UniProt P13726 33-251).
T6 construct: also called human TF; human Tissue Factor
As to the kind of experiment: live cell staining, flow cytometry.

The target of assay [2] is T1, rTF (rat TF). As to the kind of experiment: live cell staining, flow cytometry. The source holds these as a separate data set.
For the next assay, the target named is T7, r141-194_h (rat/human chimera, UniProt P42533 29-252).
T7 construct: on HEK293 cells
Briefly: live cell staining, flow cytometry.

The next assay addresses T8, hTF_N171H_T197K (human, UniProt P13726 33-251).
T8 construct: on HEK293 cells
T8 chain: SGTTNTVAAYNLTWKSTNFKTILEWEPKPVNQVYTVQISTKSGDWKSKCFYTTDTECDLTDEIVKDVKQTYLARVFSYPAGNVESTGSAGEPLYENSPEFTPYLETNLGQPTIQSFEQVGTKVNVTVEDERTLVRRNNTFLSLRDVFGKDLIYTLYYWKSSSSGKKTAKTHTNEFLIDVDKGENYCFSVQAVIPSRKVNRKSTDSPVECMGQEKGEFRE
As to the kind of experiment: live cell staining, flow cytometry.

For the next assay, the target named is T9, h108-219_r (human/rat chimera).
T9 construct: on HEK293 cells
T9 chain: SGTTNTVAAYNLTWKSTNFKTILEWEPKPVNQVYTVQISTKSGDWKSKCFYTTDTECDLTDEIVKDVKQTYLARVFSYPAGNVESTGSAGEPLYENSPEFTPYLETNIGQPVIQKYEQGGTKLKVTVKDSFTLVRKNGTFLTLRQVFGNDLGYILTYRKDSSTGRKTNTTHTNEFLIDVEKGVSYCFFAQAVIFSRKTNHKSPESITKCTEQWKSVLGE
Briefly: live cell staining, flow cytometry.

The next assay addresses T10, human TF ECD-His6 (human, UniProt P13726 33-251).
T10 construct: made in Expi293 cells; the entry holds the ECD with the C-terminal TG-His6; also called TF-His; hTF
As to the kind of experiment: BLI (ForteBio Octet). (In general: BLI is a label-free optical method that tracks binding on a fibre tip over time.)

Another assay addresses T11, cynomolgus TF ECD-His6 (cynomolgus monkey (Macaca fascicularis)).
T11 construct: made in Expi293 cells; also called TF-His; cTF
T11 chain: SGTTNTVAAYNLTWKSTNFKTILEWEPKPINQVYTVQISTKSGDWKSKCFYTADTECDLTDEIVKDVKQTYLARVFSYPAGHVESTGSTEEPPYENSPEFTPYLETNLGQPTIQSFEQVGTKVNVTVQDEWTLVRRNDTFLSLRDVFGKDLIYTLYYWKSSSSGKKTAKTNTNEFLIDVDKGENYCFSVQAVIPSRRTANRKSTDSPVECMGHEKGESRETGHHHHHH
Briefly: BLI (ForteBio Octet).

For assay [3], the target named is T12, pig TF-His (pig (Sus scrofa)).
T12 construct: also called pig TF ECD-His; pTF
T12 chain: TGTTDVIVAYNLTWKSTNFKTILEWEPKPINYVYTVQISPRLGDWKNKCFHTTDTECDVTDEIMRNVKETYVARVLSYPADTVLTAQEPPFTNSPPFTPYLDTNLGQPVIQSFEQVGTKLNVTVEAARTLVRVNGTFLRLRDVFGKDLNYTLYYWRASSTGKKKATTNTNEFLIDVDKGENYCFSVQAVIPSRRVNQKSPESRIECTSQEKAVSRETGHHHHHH
As to the kind of experiment: SPR (Biacore), antibody captured by anti-human IgG. (In general: Surface plasmon resonance follows binding to a sensor surface in real time, without labels.)

For assay [4], the target named is T13, rabbit TF-His (rabbit (Oryctolagus cuniculus), UniProt P24055 33-250).
T13 construct: also called rabbit TF ECD-His
Briefly: SPR (Biacore), antibody captured by anti-human IgG.
T13 sequence (P24055 other isoform, or with tags, fused parts or gaps): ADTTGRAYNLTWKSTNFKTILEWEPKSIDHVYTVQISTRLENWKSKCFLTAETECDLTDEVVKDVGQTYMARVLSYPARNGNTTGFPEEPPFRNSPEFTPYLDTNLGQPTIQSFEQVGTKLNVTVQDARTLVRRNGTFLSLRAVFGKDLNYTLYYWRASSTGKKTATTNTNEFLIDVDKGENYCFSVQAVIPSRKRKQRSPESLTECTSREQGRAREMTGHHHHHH

The target of assay [5] is T14, pig TF-His (pig (Sus scrofa)).
T14 construct: also called pig TF ECD-His; pTF
T14 chain: T12 chain
As to the kind of experiment: SPR (Biacore), antibody captured by anti-human IgG on CM5 chip, pig TF-His in solution.

Assay [6] deals with T15, rabbit TF-His (rabbit (Oryctolagus cuniculus), UniProt P24055 33-250).
T15 construct: also called rabbit TF ECD-His
As to the kind of experiment: SPR (Biacore), antibody captured by anti-human IgG on CM5 chip, rabbit TF-His in solution.
T15 sequence (P24055 other isoform, or with tags, fused parts or gaps): as above

Assay [7] has as its target T16, human Tissue Factor (hTF), endogenously expressed on human TF-positive cells (human, UniProt P13726 33-295). As to the kind of experiment: cell-based or functional assay.
Assay [8] has as its target T17, pig TF ECD-His (pig TF-His) protein (pig (Sus scrofa)).
T17 construct: Extracellular domain with a C-terminal TG-His6 tag, used as analyte in Biacore; also called pTF
T17 chain: T12 chain
Briefly: Biacore, antibody captured by anti-human IgG on CM5 chip, pig TF-His as analyte.

Assay [9] deals with T16, human Tissue Factor (hTF), endogenously …. As to the kind of experiment: flow cytometry competition on A431 cells, 100 nM unlabelled antibody, competitor 20 nM 25A-Alexa488.
Assay [10] has the same target. Briefly: flow cytometry competition on A431 cells, 100 nM unlabelled antibody, competitor 20 nM 43Ea-Alexa488.
Another assay has as its target T18, hTF_K149N (human, UniProt P13726 33-251).
T18 construct: on HEK293 cells; not shown: transmembrane and cytoplasmic part of the construct expressed on HEK293 cells
T18 chain: T8 chain with K149N, H171N, K197T
Briefly: live cell staining, flow cytometry.

Substitutions are numbered along the chain they refer to. Where two headings read alike, the source gives them in different places.

B1: 54E (antibody, human IgG1, V domains shown)
VH: QVQLVQSGAEVKKPGASVKVSCKASGYTFANYYMHWVRQAPGQGLEWMGIINPSGGITVYAQKFQGRVTMTRDTSTSTVYMELSSLRSEDTAVYYCARGGSKVAALAFDIWGQGTMVTVSS
VL: DIQMTQSPSSLSASVGDRVTITCQASQDISNSLNWYQQKPGKAPKLLIYDASNLETGVPSRFSGSRSGTDFTFTISSLQPEDIATYYCQQYNFHPLTFGGGTKVEIK
notes: Human IgG1
As for B1, the “Percent antibody binding to TF construct relative to hTF” value with rTF (rat TF) [1] stood at 0%; in the assay with h1-107_r, 0%; with h1-77_r, 0%; with h78-107_r.v2, 62%; with h159-219_r, 142%; with hTF it was 100%. The entries for the “Percent antibody binding to TF construct relative to hTF” value in the assay with rTF (rat TF) [2], with r141-194_h and with hTF_N171H_T197K were 0%, 0% and 89%, respectively.

B2: 5G9 (antibody, V domains shown)
VH: QVQLVESGGGVVQPGRSLRLSCKASGFNIKDYYMHWVRQAPGKGLEWIGLIDPENGNTIYDPKFQGRFTISADNSKNTLFLQMDSLRPEDTAVYYCARDNSYYFDYWGQGTPVTVSS
VL: DIQMTQSPSSLSASVGDRVTITCKASQDIRKYLNWYQQKPGKAPKLLIYYATSLADGVPSRFSGSGSGTDYTFTISSLQPEDIATYYCLQHGESPYTFGQGTKLEIT
notes: Previously described anti-TF antibody; also called humanized TF8-5G9; CNTO 860
As for B2, the “Percent antibody binding to TF construct relative to hTF” value in the assay with h108-219_r was 0%.

B3: 1G (antibody, human IgG1, V domains shown)
VH: EVQLLESGGGLVQPGGSLRLSCAASGFTFSSYAMAWVRQAPGKGLEWVSAISGSGGLTYYADSVKGRFTISRDNSKNTLYLQMNSLRAEDTAVYYCAKAPYGYYMDVWGKGTTVTVSS
VL: not shown
notes: human IgG1
B3: the dissociation constant (Kd) – broadly, a measure of binding affinity in units of concentration – in the assay with human TF ECD-His6 was determined as 2.2 nM; with cynomolgus TF ECD-His6, 2.7 nM. The binding result with pig TF-His [3] and with rabbit TF-His [4] was “no binding (tested: TF-His titration from 100 nM)” in each case.

B4: 1G (antibody, human IgG1, V domains shown)
VH: B3 VH
VL: not shown
notes: Human IgG1; also called antibody 1G
On to B4, for which the binding result in the assay with pig TF-His [5] and with rabbit TF-His [6] was “no binding” each time.

B5: anti-TF antibody 1G (antibody, human IgG1, V domains shown)
VH: B3 VH
VL: not shown
notes: Human IgG1
In the case of B5, in assay [7], the “% GM-CSF, 2.56 nM antibody, MDA-MB-231 cells + FVIIa” value was found to be 34%; the “% GM-CSF, 6.4 nM antibody, MDA-MB-231 cells + FVIIa” value was determined as 9%; the “% GM-CSF, 16 nM antibody, MDA-MB-231 cells + FVIIa” value amounted to 7%; the “% GM-CSF, 40 nM antibody, MDA-MB-231 cells + FVIIa” value stood at 7%. The “% GM-CSF, 100 nM antibody, MDA-MB-231 cells + FVIIa” value in assay [7] is 7%. For the same molecule, the binding result in assay [8] is on record as “no binding”. Further, the “% 25A binding” value in [9] stood at 75%. Further, the “% 43Ea binding” value in [10] stood at 58%.

B6: 39A (antibody, human IgG1, V domains shown)
VH: QVQLVQSGAEVKKPGSSVKVSCKASGGTFSSNAIGWVRQAPGQGLEWMGSIIPIIGFANYAQKFQGRVTITADESTSTAYMELSSLRSEDTAVYYCARDSGYYYGASSFGMDVWGQGTTVTVSS
VL: EIVMTQSPATLSVSPGERATLSCRASQSVSSNLAWYQQKPGQAPRLLIYGASTRATGIPARFSGSGSGTEFTLTISSLQSEDFAVYYCEQYNNLPLTFGGGTKVEIK
notes: Human IgG1
Take B6: the “Percent antibody binding to TF construct relative to hTF” value with rTF (rat TF) [1] worked out at 0%; with h1-107_r, 0%; in the assay with h1-77_r it was 0%; with h159-219_r, 141%; with hTF it was 100%; with rTF (rat TF) [2], 0%. Besides, the “Percent antibody binding to TF construct relative to hTF” value in the assay with r141-194_h was 0%; in the assay with hTF_K149N, 131%; with hTF_N171H_T197K, 94%.

B7: anti-TF antibody 29D (antibody, human IgG1, V domains shown)
VH: QVQLVESGGGVVQPGRSLRLSCAASGFTFHSRGMHWVRQAPGKGLEWVAVITYDGINKYYADSVEGRFTISRDNSKNTLYLQMNSLRAEDTAVYYCARDGVYYGVYDYWGQGTLVTVSS
VL: not shown
notes: Human IgG1
With B7, in assay [7], the “% GM-CSF, 2.56 nM antibody, MDA-MB-231 cells + FVIIa” value amounted to 38%; the “% GM-CSF, 6.4 nM antibody, MDA-MB-231 cells + FVIIa” value was 15%; the “% GM-CSF, 16 nM antibody, MDA-MB-231 cells + FVIIa” value was found to be 7%; the “% GM-CSF, 40 nM antibody, MDA-MB-231 cells + FVIIa” value was determined as 6%. Besides, the “% GM-CSF, 100 nM antibody, MDA-MB-231 cells + FVIIa” value in assay [7] stood at 5%. Moreover, the binding result in assay [8] is “no binding”. In [9], the “% 25A binding” value was 70%. For the same molecule, the “% 43Ea binding” value in assay [10] was 64%.

B8: 29D (antibody, human IgG1, V domains shown)
VH: B7 VH
VL: not shown
notes: human IgG1
Turning to B8, the Kd is 3.3 nM in the assay with human TF ECD-His6 and 12 nM with cynomolgus TF ECD-His6. For the same molecule, the binding result with pig TF-His [3] and with rabbit TF-His [4] was “no binding (tested: TF-His titration from 100 nM)” throughout.

B9: 29D (antibody, human IgG1, V domains shown)
VH: B7 VH
VL: not shown
notes: Human IgG1; also called antibody 29D
Regarding B9, the binding result with pig TF-His [5] and with rabbit TF-His [6] was “no binding” each time.
